The nature of this data set: yeast display, Sf9 membrane polyspecificity reagent, FACS + sequencing; frameworks hold sequencing errors. The essentials:
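A synthetic nanobody library was expressed on Saccharomyces cerevisiae BJ5465 by galactose induction for 36–48 hours. The library was stained for 1 hour at 4 °C with 10% biotinylated, detergent-solubilized Sf9 membrane reagent and enriched with streptavidin microbeads before FACS. Low and high (top ~1%) gates were set on anti-HA fluorescence for expression and streptavidin fluorescence for reagent binding, and each polyreactivity label reflects the gate of origin.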
For “QVQLVESGGGLVQAGGSLRLSCAASGRTSFWNAMGWYRQAPGKERELVSAISASVGRTYYADSVKGRFTISRDNAKNTVYLQMNSLKPEDTAVYYSAKVYHAGTGYPSLGLDYWGQGTQVTVSS”, the “polyreactivity (PSR sort gate)” value is recorded as “low polyreactivity”.

“QVQLVESGGGLVQAGGSLRLSCAASGRTSGYYAMGWYRQAPGKERELVAAISGGDSTNYADSVKGRFTFSRDNAKNTVYLQMNSLKPEDTAVYYCAKRTRVSWVPTFDYWGQGTQGTVSS”: the “polyreactivity (PSR sort gate)” value is listed as “low polyreactivity”.

As for “QVQLVESGGGLVQAGGSLRLSCAASGRTSHRNVMGWYRQAPGTEREVVARISRSGGRTYYADSVKGRFTISRDNAKNTVYSQMNSLKPEDTAVYYCNADYSSRGANYDYWGQGTQVTVSS”, the “polyreactivity (PSR sort gate)” value was “high polyreactivity”.

Regarding “QVQLVESGGGLVQAGGSLRLSCAASGRTSNVYAMGWYRQAPGKERELVAAISSRDGTTYYADSVKGRFTISRDNAKNTVYLQMNSLKPEDTAVYYCAAAVLSYADYYYDYEYWGQGTQVTVSS”, the “polyreactivity (PSR sort gate)” value is “high polyreactivity”.

As for “QVQLVESGGGLVQAGGSLRLSCAASGRTSPVYAMGWYRQAPGKERELVAAIRGGARTYYADSEKGRFTISRDNAKNTVYLQMNSLKPEDTAVYYCATGSRYRLGPGDSWGQGTQGTVSS”, the “polyreactivity (PSR sort gate)” value is listed as “high polyreactivity”.

For “QVQLVESGGGLVQAGGSLRLSCAASGRTSRFDAMGWDIEAPGKERELVARITTRGGSTYYADSVKGRFTISRDNAKNTVYLQMNSLKPEDTAVYFCNAKVTRGDVGGRFEYWGQGTQVTVSS”, the “polyreactivity (PSR sort gate)” value is listed as “high polyreactivity”.

With “QVQLVESGGGLVQAGGSLRLSCAASGRTSRFYAMGWYRQAPGKERELVARITTRGGSTYYADSVKGRFTISRDNAKNTVYLQRNSLKPEDTAVYYCNTAFWYSRSMDYWGQGTQVTVSS”, the “polyreactivity (PSR sort gate)” value is “high polyreactivity”.

For “QVQLVESGGGLVQAGGSLRLSCAASGRTSRIYAMGWYRPAPGKRELVAAISGSGSRTYYADSVKGRFTISRDNAKNTVYIQMNSLKPEDTAVYYCNGRYWYRDHPPEFDYWGQGTQVTVSS”, the “polyreactivity (PSR sort gate)” value is recorded as “high polyreactivity”.

Regarding “QVQLVESGGGLVQAGGSLRLSCAASGRTSSRNAMGWYRQAPGKERELVAAISQSGGSTYYADSVKGRFTISRDNAKNTVYLQMNSLKPEDTAVYYCAKEYKPQSYPTYYNYYYWGQGTQVTVSS”, the “polyreactivity (PSR sort gate)” value is “low polyreactivity”.

As to “QVQLVESGGGLVQAGGSLRLSCAASGRTSSTYDMGWYRQAPGKERELVADITWSGGSTYYADSVKGRFTISRDNAKNTVYLQMNRLKPEDTAVYYCAAPFVKFVGSLVYAGYDSWGQGTQVTVSS”, the “polyreactivity (PSR sort gate)” value is given as “low polyreactivity”.

Take “QVQLVESGGGLVQAGGSLRLSCAASGRTSSWYVMGWYRQAPGKERELVAAISGSGGSTYYADSVKGRFTISRDNAKNTVYLQMNSLKPEDTAVYYCAADSWSYSGYNYWGQGTQVTVSS”: the “polyreactivity (PSR sort gate)” value was “high polyreactivity”.

In the case of “QVQLVESGGGLVQAGGSLRLSCAASGRTSTQNAMGWYRQAPGKERELVAAITTGGGSTYYADSVKGRFTISRDNAKNTVYLQMNSLKPEDTAVYYCAARTPQRSEWTKYGYWGQGTQVTVSS”, the “polyreactivity (PSR sort gate)” value was “low polyreactivity”.

As to “QVQLVESGGGLVQAGGSLRLSCAASGRTSVNYAMGWYREAPGKERELVASITYSDGRTYYADSVKGRFTISRDNAKNTVYLQMNSLKPEDTAVYYCAARGYSYRGWRMDYWGQGTQVTVSS”, the “polyreactivity (PSR sort gate)” value was “high polyreactivity”.

Take “QVQLVESGGGLVQAGGSLRLSCAASGRTSVVHAMGWYRQAPGKERELVAAITSGGSTHYADSVKGRFTISRDNAKNTVYLQMNSLKPEDTAVYSCNARDRRRTNLLDYWGQGTQVTVSS”: the “polyreactivity (PSR sort gate)” value is reported as “low polyreactivity”.

In the case of “QVQLVESGGGLVQAGGSLRLSCAASGRTSWRYAMGWYRQAPGKERELVAANNRGGSTYYADSVKGRFTISRDNAKNTVYLQMNSLKPEDTAVYYCAVDTPLEYYHQQAYVAGEYWGQGTQVTVSS”, the “polyreactivity (PSR sort gate)” value is listed as “low polyreactivity”.

Take “QVQLVESGGGLVQAGGSLRLSCAASGRTSWVNAMGWYRQAPGKERELVAAIVSGGTTKYADSVKGRFTISRDNAKNTVYLQMNSMKPEDTAVYYCAAALGLGGQKTRRYEYWGQGTQVTVSS”: the “polyreactivity (PSR sort gate)” value is “high polyreactivity”.

As for “QVQLVESGGGLVQAGGSLRLSCAASGRTSWYTMGWYRQAPGKERELVAAISGSGGITYYADSVKGRFTISRDNAKNTVYLQMNSLKPEDTAVYYCNALRPRSLTEMYYWGQGTQVTVSP”, the “polyreactivity (PSR sort gate)” value is “high polyreactivity”.

For the sequence “QVQLVESGGGLVQAGGSLRLSCAASGRTSYGYAMGWYRQAPGKERELVAAITSSGGSTYYADSVKGRFTISRDNAKNTVYLEMNSLKPEDTAVYYCAASRVRYSYGYPYYYWGQGTQVTVSS”, the “polyreactivity (PSR sort gate)” value is reported as “high polyreactivity”.

In the case of “QVQLVESGGGLVQAGGSLRLSCAASGRTSYTNAMGWYRQAPGKERELVAAINYSGGSTYYADSVKGRFTISRDNAKNTVYLQMNSLKPEDIAVYYCAAERYYWYTEMGYWGQGTQGTVSS”, the “polyreactivity (PSR sort gate)” value is recorded as “high polyreactivity”.

For “QVQLVESGGGLVQAGGSLRLSCAASGRTSYYAMGWYRQAPGKERELVAAINSGDSTTYADSVKGRFTISRDNAKNTVYLQMNSLKPEDTAVYYCATALYDWYSLEFDYWGQGTQVTVSS”, the “polyreactivity (PSR sort gate)” value is “low polyreactivity”.

“QVQLVESGGGLVQAGGSLRLSCAASGRTTWIYAMGWYRQAPGKERELVAVISKRGGNTYYADSVKGRFTISRDNAKNTVYLQMNSLKPADTAVYYCAAAGVYGSYDYWGQGTQVTVSS”: the “polyreactivity (PSR sort gate)” value was “high polyreactivity”.

“QVQLVESGGGLVQAGGSLRLSCAASGRTVSFYDMGWYRQAPGKERELVAAINSGSSTYYADSVKGRCTISRDNANTTVYLQMNSLKPEDTAVYYCADEPYFWWQNEYWGQGTQVTVSS”: the “polyreactivity (PSR sort gate)” value is reported as “high polyreactivity”.

As for “QVQLVESGGGLVQAGGSLRLSCAASGRTYGVYAMGWYRQAPGKERELVATITLSGGRTYYAHSVKGRFTISRDNAKNTVYLEMNSLKPEDSAVYYCNARFSYYYGFRASRLDYWGQGTQVNVSS”, the “polyreactivity (PSR sort gate)” value is “high polyreactivity”.

With “QVQLVESGGGLVQAGGSLRLSCAASGRTYHGYAMGWYRQAPGKERELVARINWSDGRTYYADSVKGRFTISRDNAKNTVYLQMNSLKPEDTAVYYCAADKTVSYAPAWYYYWGQGTQVNVSS”, the “polyreactivity (PSR sort gate)” value is “low polyreactivity”.

In the case of “QVQLVESGGGLVQAGGSLRLSCAASGRTYQANTMGWYRQAPVKEREFVAAISTSVGSTYYADSVKGRFTISRDNAKNTVYLQMKSLKPEDTALFYCAKASQSWGRDDYYYWGQGTQVTVSS”, the “polyreactivity (PSR sort gate)” value was “low polyreactivity”.

Consider “QVQLVESGGGLVQAGGSLRLSCAASGRTYVDYAMGWYRQAPGKEREFDAAITWSGGSTYYADSVKGRFTISRDYAKNTVYLQMTSLKPEDTEVYYCNRDTNVGVLNYKFYDGPERDYWGQGTQVTVSS”, for which the “polyreactivity (PSR sort gate)” value is “low polyreactivity”.

Turning to “QVQLVESGGGLVQAGGSLRLSCAASGRTYVSYAMGWYRQAPGKERELVATITGSTGGTYYADSVKGRFTISRDHAKNTVYLQMNSLKPEDTAVYYCNKDYYYNPGNVASGYDYWGQGTQVTVSS”, the “polyreactivity (PSR sort gate)” value is given as “low polyreactivity”.

Take “QVQLVESGGGLVQAGGSLRLSCAASGRTYWHNTMGWYRQAPGKERELVAAINGGGGSTYYADSVKGRFTISRDNAKNTVYLQMNSLKPEDTAVYYCSARQGVVKGGRGYGYWGQGTQVTVSS”: the “polyreactivity (PSR sort gate)” value was “high polyreactivity”.

With “QVQLVESGGGLVQAGGSLRLSCAASGRTYYHYTMGWYRQAPGKERDLVAAITSGGSTYYADSVKGRFTMSRDNAKITVYVQMNSLKPEDTAVYYCARVRPLYHYSRYDYWGQGTQVTVSS”, the “polyreactivity (PSR sort gate)” value is listed as “high polyreactivity”.

With “QVQLVESGGGLVQAGGSLRLSCAASGRYFGYNAMGWYRQAPGKERELVAAITGSGGSTYYADSVKGRFTISLDNAKHTVYLQIISLKPEDTAVYYCAADRFYHSAEYDYWGQGTQVTVSS”, the “polyreactivity (PSR sort gate)” value is given as “low polyreactivity”.

Source of the values: the nanobody polyreactivity screen of Harvey et al. (2022).
